The target in the assay is Sudan virus (SUDV) glycoprotein GP (Sudan ebolavirus, strain  for …, UniProt Q7T9D9). In words: SPR. The following applies: both partners purified.

Numbering of substitutions follows the chain as printed. Names and notes keep the numbering of the source.

B1:  (antibody, V domains shown)
VH: EVQLVESGGGLVKPGGSLRLSCAASGFTFSNAWMSWVRQAPGKGLEWVGRIKSKTDGGTIDYAAPVKGRFTISRDDSKNTVYLQMTSLKTEDTAVYYCTTYTEDMRYFDWLLRGGETFDYWGQGTLVTVSS
VL: DIRLTQSPSSLSASVGDRVTITCRASQYISTYLNWYQQKPGKAPKLLIYAAYNLQSGVPSRFSGSRFGTDFSLTISSLQPEDFATYHCQQSYSTPGRYTFGQGTKVEIK
notes: also called H27Q/S52Y/G66R-LC variant
Consider B1, for which the affinity, expressed as Kd, was 0.349 nM.

B2:  (antibody, V domains shown)
VH: B1 VH
VL: B1 VL with Q27H, A50Y, L54R, R66G
notes: also called A50Y/S52Y/L54R-LC variant
Consider B2, for which binding was put at a Kd of 0.248 nM. This Kd and that of the molecule before are within 1.5-fold of each other.

Values taken from publication PMC13006735 (Research, 2026).
